This test addresses T1, tGFP-tagged Rab27a R82C (human, UniProt P51159 1-221, R82C).
T1 sequence (looked up): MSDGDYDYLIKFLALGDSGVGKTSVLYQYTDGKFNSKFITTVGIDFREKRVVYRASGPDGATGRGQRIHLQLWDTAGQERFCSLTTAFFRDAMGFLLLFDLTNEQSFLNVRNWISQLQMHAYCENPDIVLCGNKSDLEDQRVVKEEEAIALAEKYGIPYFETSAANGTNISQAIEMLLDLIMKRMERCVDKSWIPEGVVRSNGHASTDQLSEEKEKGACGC
Briefly: co-IP.

B1: melanophilin (natural protein, human (endogenous in mel1106), UniProt Q9BV36 1-600, looked up)
chain: MGKKLDLSKLTDEEAQHVLEVVQRDFDLRRKEEERLEALKGKIKKESSKRELLSDTAHLNETHCARCLQPYQLLVNSKRQCLECGLFTCKSCGRVHPEEQGWICDPCHLARVVKIGSLEWYYEHVKARFKRFGSAKVIRSLHGRLQGGAGPELISEERSGDSDQTDEDGEPGSEAQAQAQPFGSKKKRLLSVHDFDFEGDSDDSTQPQGHSLHLSSVPEARDSPQSLTDESCSEKAAPHKAEGLEEADTGASGCHSHPEEQPTSISPSRHGALAELCPPGGSHRMALGTAAALGSNVIRNEQLPLQYLADVDTSDEESIRAHVMASHHSKRRGRASSESQIFELNKHISAVECLLTYLENTVVPPLAKGLGAGVRTEADVEEEALRRKLEELTSNVSDQETSSEEEEAKDEKAEPNRDKSVGPLPQADPEVGTAAHQTNRQEKSPQDPGDPVQYNRTTDEELSELEDRVAVTASEVQQAESEVSDIESRIAALRAAGLTVKPSGKPRRKSNLPIFLPRVAGKLGKRPEDPNADPSSEAKAMAVPYLLRRKFSNSLKSQGKDDDSFDRKSVYRGSLTQRNPNARKGMASHTFAKPVVAHQS
For the molecule B1, the “fold melanophilin coprecipitated relative to Rab27a D74H” value was 2.7 ± 1.4 fold.

The values are drawn from article PMC4976026 (The Journal of allergy and clinical immunology, 2016).
